Assay results published in patent US20250276018A1 (AFFYIMMUNE THERAPEUTICS, published 2025).
Residue numbers refer to the chain shown, from its start. Names may count otherwise.

B1: Affy7-Y6L CAR (other)
chain: GSEQKLISEEDLGSQVQLQQSGPELVRPGASVKMSCRASGYTFTSYWLHWVKQRPGQGLEWIGMIDPSNSDTRFNPNFKDKATLNVDRSSNTAYMLLSSLTSADSAVYYCATLGSYVSPLDYWGQGTSVTVSSGGGGSGGGGSGGGGSDIMMSQSPSSLTVSVGEKVTVSCKSSQSLLYTSSQKNYLAWYQQKPGQSPKLLIYWASTRESGVPDRFTGSGSGTDFTLTITSVKADDLAVYYCQQYYAYPWTFGGGTKLEIKRASTTTPAPRPPTPAPTIASQPLSLRPEACRPAAGGAVHTRGLDFACDFWVLVVVGGVLACYSLLVTVAFIIFWVRSKRSRLLHSDYMNMTPRRPGPTRKHYQPYAPPRDFAAYRSLRVKFSRSADAPAYQQGQNQLYNELNLGRREEYDVLDKRRGRDPEMGGKPRRKNPQEGLYNELQKDKMAEAYSEIGMKGERRRGKGHDGLYQGLSTATKDTYDALHMQALPPR
notes: CAR on transduced human T cells; Y to L in HC CDR3; P2A remnant not included; also called MycT-Affy7-Y6L CAR-SSTR2
B2: Affy7-Y6M CAR (other)
chain: B1 chain with L113M
notes: CAR on transduced human T cells; Y to M in HC CDR3; P2A remnant not included; also called MycT-Affy7-Y6M CAR-SSTR2

Assays:
[1] = target: T1, c-MET on human target cells (human, UniProt P08581 25-1390); assay: cell-based or functional assay
[2] = target: T1, c-MET on human target cells; assay: cell-based or functional assay; remark: listed apart in the source
[3] = target: T2, AF647 labeled c-met protein (UniProt P08581 25-932, limits assumed, labeled with AlexaFluor 647 (AF647)); assay: flow cytometry, AF647-labeled c-met protein titrated on CAR-T cells (Round 2)
T2 construct: Soluble labeled c-met protein titrated on CAR-T cells
Description: (§1) Binding of labeled c-MET to CAR-T cells expressing the affinity tuned c-MET scFvs was evaluated by transducing lentivirus anti-c-MET CAR particles into human T cells to form c-MET CAR-T cells incubated with AF647-labeled c-MET. […] Following a 48 hr. incubation at 37° C., the culture media was brought up to […] per well and incubated at 37° C. for 10 days.
(§2) Cells were stained on ice for 30 mins and then washed with PBS. After washing, residually bound protein on CAR T cells were measured on a flow cytometer (Beckman, CytoFLEX®). The resulting binding data was fit using a non-linear regression analysis on GraphPad Prism to calculate half effective dose concentration (EC₅₀) values. The results of this analysis are shown in FIGS. 2-5 and Tables 2-5 below.

[4] = target: T1, c-MET on human target cells; assay: cell-based or functional assay; remark: listed apart in the source
[5] = target: T2, AF647 labeled c-met protein; assay: flow cytometry, EC50 relative to parental Affy7 CAR-T cells (Round 2)
Description: as §1, §2

[6] = target: T1, c-MET on human target cells; assay: cell-based or functional assay; remark: listed apart in the source
[7] = target: T1, c-MET on human target cells; assay: cell-based or functional assay; remark: listed apart in the source
[8] = target: T1, c-MET on human target cells; assay: cell-based or functional assay; remark: listed apart in the source
[9] = target: T1, c-MET on human target cells; assay: cell-based or functional assay; remark: listed apart in the source

T1 sequence (P08581 25-1390): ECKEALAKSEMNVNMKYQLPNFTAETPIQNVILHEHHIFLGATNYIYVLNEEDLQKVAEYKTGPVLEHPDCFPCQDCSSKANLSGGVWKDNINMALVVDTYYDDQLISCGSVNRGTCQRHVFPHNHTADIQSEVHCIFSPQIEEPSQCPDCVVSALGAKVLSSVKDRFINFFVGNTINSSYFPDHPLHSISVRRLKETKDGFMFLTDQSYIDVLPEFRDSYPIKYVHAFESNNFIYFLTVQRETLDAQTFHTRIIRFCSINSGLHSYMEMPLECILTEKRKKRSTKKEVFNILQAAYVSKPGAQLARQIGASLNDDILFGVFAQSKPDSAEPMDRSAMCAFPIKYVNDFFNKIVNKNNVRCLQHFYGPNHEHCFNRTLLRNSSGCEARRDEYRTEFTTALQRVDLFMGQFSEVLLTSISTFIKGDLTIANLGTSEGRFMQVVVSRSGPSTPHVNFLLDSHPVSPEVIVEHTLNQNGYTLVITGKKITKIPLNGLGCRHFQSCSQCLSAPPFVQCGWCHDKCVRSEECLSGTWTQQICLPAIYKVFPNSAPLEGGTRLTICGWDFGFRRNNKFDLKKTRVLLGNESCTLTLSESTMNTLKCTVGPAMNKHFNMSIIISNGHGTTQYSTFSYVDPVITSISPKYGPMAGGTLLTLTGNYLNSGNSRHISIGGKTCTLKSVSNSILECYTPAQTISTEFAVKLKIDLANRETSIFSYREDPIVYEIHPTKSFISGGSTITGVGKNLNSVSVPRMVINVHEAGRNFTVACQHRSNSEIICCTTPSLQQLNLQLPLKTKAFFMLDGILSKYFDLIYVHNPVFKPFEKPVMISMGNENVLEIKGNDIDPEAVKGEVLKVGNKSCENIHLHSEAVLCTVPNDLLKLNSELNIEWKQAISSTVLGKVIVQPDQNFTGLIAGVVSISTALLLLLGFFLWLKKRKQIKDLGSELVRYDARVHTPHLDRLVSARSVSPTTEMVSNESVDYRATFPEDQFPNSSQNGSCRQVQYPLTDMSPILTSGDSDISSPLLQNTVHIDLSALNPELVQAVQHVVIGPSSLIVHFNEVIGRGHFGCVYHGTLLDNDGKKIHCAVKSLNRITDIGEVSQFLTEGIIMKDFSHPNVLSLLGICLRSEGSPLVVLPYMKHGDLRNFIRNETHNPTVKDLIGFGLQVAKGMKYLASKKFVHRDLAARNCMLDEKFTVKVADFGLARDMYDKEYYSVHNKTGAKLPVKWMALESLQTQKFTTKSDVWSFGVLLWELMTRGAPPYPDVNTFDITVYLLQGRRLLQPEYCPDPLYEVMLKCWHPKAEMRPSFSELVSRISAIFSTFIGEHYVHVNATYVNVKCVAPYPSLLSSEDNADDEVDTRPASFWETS
T2 sequence (P08581 25-932 limits assumed): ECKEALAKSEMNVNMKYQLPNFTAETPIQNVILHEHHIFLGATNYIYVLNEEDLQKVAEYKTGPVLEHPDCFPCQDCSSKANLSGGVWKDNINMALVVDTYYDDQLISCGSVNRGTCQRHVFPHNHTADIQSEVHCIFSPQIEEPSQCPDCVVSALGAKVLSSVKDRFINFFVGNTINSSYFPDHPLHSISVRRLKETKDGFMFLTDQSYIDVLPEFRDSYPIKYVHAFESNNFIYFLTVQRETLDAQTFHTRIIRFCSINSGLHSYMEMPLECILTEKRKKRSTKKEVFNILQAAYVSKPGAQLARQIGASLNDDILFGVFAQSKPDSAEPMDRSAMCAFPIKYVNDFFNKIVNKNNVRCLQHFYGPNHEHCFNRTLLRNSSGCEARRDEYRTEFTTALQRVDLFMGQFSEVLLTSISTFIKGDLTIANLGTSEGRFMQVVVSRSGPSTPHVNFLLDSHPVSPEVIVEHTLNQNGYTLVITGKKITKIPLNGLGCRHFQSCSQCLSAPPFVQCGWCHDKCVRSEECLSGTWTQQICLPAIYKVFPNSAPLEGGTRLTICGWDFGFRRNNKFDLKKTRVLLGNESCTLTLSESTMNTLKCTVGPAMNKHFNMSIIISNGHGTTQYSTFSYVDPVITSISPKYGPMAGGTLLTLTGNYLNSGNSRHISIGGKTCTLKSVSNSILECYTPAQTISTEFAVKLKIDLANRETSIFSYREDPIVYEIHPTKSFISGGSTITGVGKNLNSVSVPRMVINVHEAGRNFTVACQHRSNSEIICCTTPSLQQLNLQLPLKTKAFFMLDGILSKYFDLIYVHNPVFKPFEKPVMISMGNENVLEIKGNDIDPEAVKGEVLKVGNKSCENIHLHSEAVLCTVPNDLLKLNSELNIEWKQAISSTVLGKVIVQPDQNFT

| EC50 [3] | Fold Change [5] | Binder | cytotoxicity, Normal Human Kidney Cells, 8 hrs [1] | cytotoxicity, Normal Human Kidney Cells, 16 hrs [1] | cytotoxicity, Normal Human Kidney Cells, 24 hrs [1] | cytotoxicity, Normal Human Kidney Cells, 32 hrs [1] | cytotoxicity, Normal Human Kidney Cells, 40 hrs [1] | cytotoxicity, Normal Human Kidney Cells, 48 hrs [1] | cytotoxicity, Normal Human Liver Cells, 8 hrs [2] | cytotoxicity, Normal Human Liver Cells, 16 hrs [2] | cytotoxicity, Normal Human Liver Cells, 24 hrs [2] | cytotoxicity, Normal Human Liver Cells, 32 hrs [2] | cytotoxicity, Normal Human Liver Cells, 40 hrs [2] | cytotoxicity, Normal Human Liver Cells, 48 hrs [2] | cytotoxicity, Normal Human Lung Cells, 8 hrs [4] | cytotoxicity, Normal Human Lung Cells, 16 hrs [4] | cytotoxicity, Normal Human Lung Cells, 24 hrs [4] | cytotoxicity, Normal Human Lung Cells, 32 hrs [4] | cytotoxicity, Normal Human Lung Cells, 40 hrs [4] | cytotoxicity, Normal Human Lung Cells, 48 hrs [4] | also measured |
| --- | --- | --- | --- | --- | --- | --- | --- | --- | --- | --- | --- | --- | --- | --- | --- | --- | --- | --- | --- | --- | --- |
| 619 µM | 6190 fold | B1 | 11.7 | 12.9 | 14.8 | 16.2 | 17.1 | 21.4 | 6.1 | 2.3 | 2.5 | 1.1 | 0 | 3.2 | 21.1 | 23.6 | 22.8 | 25.4 | 25.9 | 30.1 | percent cytotoxicity, Hs746T, 24 hrs [6]: 1.6%; percent cytotoxicity, Hs746T, 48 hrs [6]: 42.9%; percent cytotoxicity, Hs746T, 72 hrs [6]: 64.5%; percent cytotoxicity, H1993, 24 hrs [7]: 12.8%; percent cytotoxicity, H1993, 48 hrs [7]: 42.6%; percent cytotoxicity, H1993, 72 hrs [7]: 71.2%; percent cytotoxicity, SNU638, 24 hrs [8]: 66.9%; percent cytotoxicity, SNU638, 48 hrs [8]: 84.5%; percent cytotoxicity, SNU638, 72 hrs [8]: 93.5%; cytotoxicity, Normal Human Colon Cells, 8 hrs [9]: 12.1; cytotoxicity, Normal Human Colon Cells, 16 hrs [9]: 16.4; cytotoxicity, Normal Human Colon Cells, 24 hrs [9]: 13.6; cytotoxicity, Normal Human Colon Cells, 32 hrs [9]: 19; cytotoxicity, Normal Human Colon Cells, 40 hrs [9]: 20; cytotoxicity, Normal Human Colon Cells, 48 hrs [9]: 17.2 |
| 17.2 µM | 172 fold | B2 | 8.8 | 10 | 12 | 13.3 | 15.9 | 19.7 | 7.2 | 6.2 | 9 | 10.9 | 11.3 | 10 | 9.9 | 9.7 | 6.3 | 6.9 | 9.5 | 13.8 | percent cytotoxicity, Hs746T, 24 hrs [6]: 47.6%; percent cytotoxicity, Hs746T, 48 hrs [6]: 87%; percent cytotoxicity, Hs746T, 72 hrs [6]: 96.4%; percent cytotoxicity, H1993, 24 hrs [7]: 21.3%; percent cytotoxicity, H1993, 48 hrs [7]: 70.5%; percent cytotoxicity, H1993, 72 hrs [7]: 89.6%; percent cytotoxicity, SNU638, 24 hrs [8]: 61.2%; percent cytotoxicity, SNU638, 48 hrs [8]: 77.5%; percent cytotoxicity, SNU638, 72 hrs [8]: 90.6%; cytotoxicity, Normal Human Colon Cells, 8 hrs [9]: 1.4; cytotoxicity, Normal Human Colon Cells, 16 hrs [9]: 1.7; cytotoxicity, Normal Human Colon Cells, 24 hrs [9]: 1.4; cytotoxicity, Normal Human Colon Cells, 32 hrs [9]: 7.1; cytotoxicity, Normal Human Colon Cells, 40 hrs [9]: 1.8; cytotoxicity, Normal Human Colon Cells, 48 hrs [9]: 3.6 |
